In patent US6649396:

Molecular target: native fiber receptors
Experiment: cell-based or functional assay

Substance | decrease in expression of luciferase after AdCMVLuc infection of mock-transfected HeLa cells and HeLa cells expressing the irrelevant sFv
recombinant Ad5 knob (from UniProt P11818 386-581) | > 95%
recombinant Ad2 knob (from UniProt P03275 388-582) | > 95%
